Patent US20090291088A1, “THERAPEUTIC COMBINATIONS OF ANTI-IGF-1R ANTIBODIES AND OTHER COMPOUNDS” (Biogen Idec MA Inc., priority 2008, published 2009)
Positions count from the first letter of the chain named. Blank lines part the entries; values can stand above or below the molecule they belong to.

How the values were obtained:
MCF-7 = assay: Ki67 inhibition in MCF-7 cells; assay type: cell-based, human; settings: breast cancer cell
[1] = biological target: T1, recombinant human IGF-1R ectodomain (Homo sapiens, UniProt P08069); assay: ELISA binding of Fabs and murine MAbs to recombinant soluble IGF-1R (IGF-1R-His, IGF-1R-Fc); settings: murine monoclonal antibodies; read-out: Binding (EC50nM) Protein ELISA
T1 construct: denoted hIGF-1R(1-902)-His10, was purchased from R&D systems (Cat. No. 305-GR-050); His or Fc (two alternative proteins, not both on one chain); purchased R & D Systems 305-GR
Description: Recombinant human IGF-1R ectodomain was used to screen a human naïve phagemid Fab library containing 3.5×10^10 unique clones (Hoet, R. M., et al. Nat. Biotechnol. 23(3):344-8 (2005), (“Hoet et al.”) which is incorporated herein by reference in its entirety). Two distinct panning arms were followed using biotinylated IGF1R-his and IGF1R-Fc protein. Proteins were captured on steptavidin-coated magnetic beads prior to incubation with the phage library. In the case of IGF1R-Fc, a biotinylated anti-Fc antibody was captured on the magnetic beads, followed by captured of the Fc fusion protein. […] Sequence analysis of all clones determined 12 clones were isolated in both arms of the panning strategy. […]
ELISA assays were performed to determine specific binding of the Fab fragment antibodies to soluble IGF-1R over the insulin receptor. […] Bound antibody was detected with HRPO labeled goat α-human kappa (Southern Biotechnology Associates, #2060-05) for Fabs and goat α-mouse IgG Fcγ (Jackson Immunoresearch, # 115-035-164) for murine MAbs. Color development was stopped by addition of 4NH2SO4 and optical density is measured at 450 nm using a Molecular Devices plate reader and binding curves are generated.

Calu-6 = assay: IGF driven tumor cell growth, CELL TITER-GLO, Calu-6; assay type: cell-based, human; settings: lung cancer cells
Description: NCI-H23, Calu-6, Colo-205, Panc-1, BxPC-3 (ATCC) tumor lines were purchased from ATCC. Cell lines were grown in complete growth medium containing RPMI-1640 (ATCC), 10% fetal bovine serum (Irvine Scientific Inc.) and 50 μg/ml of Gentamycin (Gibco, Invitrogen). Trypsin-EDTA solution (Sigma) was used for removal of adherent cells from culture vessels. Phosphate buffered saline, pH 7.2, was from MediaTech Inc The 96-well clear bottom plates for luminescent assay was purchased from Wallac Inc.
Cells grown to 80% monolayers were, trypsinized, washed, resuspended and plated into 96-well plates in 200 μl of 2% growth medium at 8×10^3 cells/well for NCI-H23 and Colo-205 cells; and 5×10^3 cells/well for Calu-6, Panc-1 and BxPC-3 cells. After 24 hours, the culture medium was replaced with 100 μl of serum free medium (SFM), and 50 μl of serially diluted antibodies at 4× concentration was added. […] All treatments were done in triplicates. Cell growth was measured using the CELL TITER-GLO™ Luminescent Cell Viability Assay (Promega, Madison, Wis.). The 1:1 mixture of reagent and SFM was added at 200 μl/well. Luminescence was detected on Wallac (Boston, Mass.) plate reader.
The ability of the selected murine antibodies to inhibit IGF/IGF-1R dependent in vitro growth of several human tumor lines (Lung, H-23, Calu-6; Pancreas, BxPc-3, Panc-1, MiaPaCa and Colon Colo205) was measured by a proliferation assay described in Example 13.

hIGF-1R-Fc = biological target: T2, hIGF-1R-Fc (Homo sapiens, UniProt P08069); assay: Antibody cross-blocking ELISA with biotinylated M13-C06 or M14-G11; assay type: binding
T2 construct: (3) human IGF-1R(1-903)-Fc (hIGF-1R-Fc, Biogen Idec); host or cells: CHO
Description: The ability of various antibodies to block M13-C06 or M14-G11 was determined using biotinylated version of both antibodies and hIGF-1R-Fc. Briefly, 50 μL of 2 μg/mL hIGF-1R-Fc in 1×PBS were coated per well of a 96-well clear MaxiSorp plate (Nunc) for 2 hours at room temperature (RT, no shaking). Plates were washed with 1×PBS and blocked overnight at 2-8° C. using a PBS/1% BSA solution. Plates were washed and incubated with a 100 μL mixture of biotinylated M13-C06 or biotinylated M14-G11 (80 ng/mL) and inhibitor antibody for 1 hour at RT. Inhibitor antibodies were serially diluted (5-fold dilutions) from 40 μg/mL to 3 ng/mL. M13-C06 and M14-G11 were biotinylated using EZ-Link Sulfo-NHS-LC-Biotin according to protocol provided by the manufacturer (Pierce Cat. No. 21335). A control was also performed by serial dilution of a non-IGF-1R specific IgG4 isotype control antibody with biotinylated M13-C06 or biotinylated M14-G11. Plates were washed and shaken for 1 hour at RT with 100 μL/well streptavidin-HRP (1:4000 dilution into blocking buffer, Southern Biotech Cat. No. 7100-05). Plates were washed and 100 μL/well SureBlue Reserve TMB Microwell Peroxidase Substrate (KPL, Cat. No. 53-00-01) was added to the wells. Detection of the presence of biotinylated M13-C06 or M14-G11 was performed by reading the absorbance at 650 nm every 5 minutes using a Wallac 1420-041 Multilabel Counter plate reader.

- EC50 [1]: 0.085 nM
B1: 20C8.3B8: murine anti-human IGF-1R monoclonal antibody from hybridoma; VH SEQ ID NO:43, VL SEQ ID NO:103 (antibody, V domains shown)
VH: DVQLQESGPDLVKPSQSLSLTCTVTGYSITSGYSWHWIRQFPGNKLEWMGYIHYSGGTNYNPSLKSRISITRDTSKNQFFLQLNSVTTEDTATYYCARSGYGYRSAYYFDYWGQGTTVTVSS
VL: DIVLTQSPASLAVSLGQRATISCRASKSVSTSAYSYMHWYQQKPGQPPKLLIYLASNLESGVPARFSGSGSGTDFTLNIHPVEEEDAATYYCQHSRELPYTFGGGTKLEIK
modifications: Antibody variable heavy chain sequence; Antibody variable light chain sequence
- Proliferation of Tumor Cells MCF-7* (Ki67 Inhibit.) (MCF-7): +++ (>50%@0.1 μg/ml)
- Proliferation of Tumor Cells Calu-6 (Calu-6): +++ (>30%@0.1 μg/ml)

- EC50 [1]: 0.042 nM
B2: 20D8.24B11: murine anti-human IGF-1R monoclonal antibody from hybridoma; VH SEQ ID NO:53, VL SEQ ID NO:103 (antibody, V domains shown)
VH: B1 VH with V118L
VL: B1 VL
modifications: Antibody variable heavy chain sequence; Antibody variable light chain sequence
- Proliferation of Tumor Cells MCF-7* (Ki67 Inhibit.) (MCF-7): ++ (>50%@1 μg/ml)
- Proliferation of Tumor Cells Calu-6 (Calu-6): +++ (>30%@0.1 μg/ml)

B3: M14-C03: anti-IGF-1R antibody, allosteric blocker of IGF-1 and IGF-2 (antibody, V domains shown)
VH: EVQLLESGGGLVQPGGSLRLSCAASGFTFSKYMMSWVRQAPGKGLEWVSYISPSGGLTWYADSVKGRFTISRDNSKNTLYLQMNSLRAEDTAVYYCARDGARGYGMDVWGQGTTVTVSS
VL: DIQMTQSPATLSLSPGERATLSCRASQSVSSYLAWYQQKPGQAPRLLIYDASNRATGIPARFSGSGSGTDFTLTISSLEPEDFAVYYCQQRSNWPPEVTFGPGTKVDIK
modifications: Antibody variable heavy chain sequence; Antibody variable light chain sequence
- M13-C06 cross-blocking (hIGF-1R-Fc): +++++ (+++++ = antibody binding competition relative to itself (90-100%))
